From patent publication CN111378037A

Biological target: Human IL33-his (Human IL33 (NP_254274.1) Ser112-Thr270 with a C-terminal 6-histidine tag, expressed in E. coli) (human) (UniProt O95760)
Test: cell-based or functional assay

Chain of UniProt O95760 (O95760 other isoform, or with tags, fused parts or gaps limits assumed, form in doubt): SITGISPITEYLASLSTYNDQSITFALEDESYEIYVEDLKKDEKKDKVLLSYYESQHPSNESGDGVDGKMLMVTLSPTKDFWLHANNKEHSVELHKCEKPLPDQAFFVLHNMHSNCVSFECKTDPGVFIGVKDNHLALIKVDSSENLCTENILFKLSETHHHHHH

Substance: 对照抗体 ANB020 (antibody)
- IC50 of inhibition of IL-5 production by KU812 cells stimulated with IL33: 0.51 µg/mL
